Assay results from PMC6334735.

Target: TrkA
Test: in situ PLA, anti-Trk plus anti-total IRS1
Conditions: sites Y608

Chain of IRS1 (P35570 whole entry, looked up, change not shown): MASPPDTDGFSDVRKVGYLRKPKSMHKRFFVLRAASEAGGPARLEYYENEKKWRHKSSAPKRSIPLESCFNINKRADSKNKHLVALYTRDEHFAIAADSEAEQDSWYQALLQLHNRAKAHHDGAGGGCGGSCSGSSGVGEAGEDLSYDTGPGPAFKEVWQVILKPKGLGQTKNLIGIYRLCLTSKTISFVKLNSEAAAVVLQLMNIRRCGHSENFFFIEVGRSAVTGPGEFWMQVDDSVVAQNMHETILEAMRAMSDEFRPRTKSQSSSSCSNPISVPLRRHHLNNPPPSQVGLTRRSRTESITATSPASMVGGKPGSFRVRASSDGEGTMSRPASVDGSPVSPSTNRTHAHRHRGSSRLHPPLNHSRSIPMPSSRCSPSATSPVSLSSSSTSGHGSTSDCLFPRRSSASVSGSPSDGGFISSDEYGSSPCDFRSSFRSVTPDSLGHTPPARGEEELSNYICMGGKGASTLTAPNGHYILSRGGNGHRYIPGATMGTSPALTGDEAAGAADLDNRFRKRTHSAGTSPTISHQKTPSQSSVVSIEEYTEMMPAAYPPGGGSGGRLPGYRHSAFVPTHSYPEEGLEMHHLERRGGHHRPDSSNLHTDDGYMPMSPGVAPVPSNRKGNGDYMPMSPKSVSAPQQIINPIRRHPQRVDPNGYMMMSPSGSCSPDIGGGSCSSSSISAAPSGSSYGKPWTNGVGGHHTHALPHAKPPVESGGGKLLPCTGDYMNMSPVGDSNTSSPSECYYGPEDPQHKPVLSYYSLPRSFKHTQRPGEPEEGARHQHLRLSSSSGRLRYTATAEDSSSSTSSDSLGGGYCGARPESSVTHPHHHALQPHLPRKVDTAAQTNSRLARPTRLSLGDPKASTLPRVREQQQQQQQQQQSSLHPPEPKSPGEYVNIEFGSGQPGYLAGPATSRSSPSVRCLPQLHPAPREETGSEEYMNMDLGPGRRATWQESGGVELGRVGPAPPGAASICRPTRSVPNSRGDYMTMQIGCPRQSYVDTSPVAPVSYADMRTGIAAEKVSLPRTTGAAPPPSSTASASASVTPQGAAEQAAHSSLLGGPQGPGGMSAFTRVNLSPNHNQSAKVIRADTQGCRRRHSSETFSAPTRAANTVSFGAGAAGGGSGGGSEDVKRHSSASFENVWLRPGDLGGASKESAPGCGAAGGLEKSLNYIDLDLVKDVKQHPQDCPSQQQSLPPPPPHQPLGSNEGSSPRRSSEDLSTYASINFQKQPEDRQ

Row | other: PLA dots per neuron (reference: NGF-treated neurons) | other: PLA dots per neuron (reference: untreated neurons (CTR)) | Substance
1 | weaker; reference 121.5 ± 16.4 | – | IRS1 (from UniProt P35570) NGF after NT157 preincubation (10 µM, 2 h)
2 | – | stronger; reference 50.6 ± 5.9 | IRS1 (from UniProt P35570) NGF 100 ng/ml, 30 min
